Assay results reported in US20240368301A1 (HANGZHOU JIUYUAN GENE ENGINEERING, published 2024).

T1: cynomolgus macaques SIRPα-his (ACRO, Cat #SIA-C52H7) (cynomolgus macaque, UniProt A0A2K5VYQ9 31-369)
T1 construct: also called Monkey SIRPα; cynomolgus macaque SIRPα
T1 sequence: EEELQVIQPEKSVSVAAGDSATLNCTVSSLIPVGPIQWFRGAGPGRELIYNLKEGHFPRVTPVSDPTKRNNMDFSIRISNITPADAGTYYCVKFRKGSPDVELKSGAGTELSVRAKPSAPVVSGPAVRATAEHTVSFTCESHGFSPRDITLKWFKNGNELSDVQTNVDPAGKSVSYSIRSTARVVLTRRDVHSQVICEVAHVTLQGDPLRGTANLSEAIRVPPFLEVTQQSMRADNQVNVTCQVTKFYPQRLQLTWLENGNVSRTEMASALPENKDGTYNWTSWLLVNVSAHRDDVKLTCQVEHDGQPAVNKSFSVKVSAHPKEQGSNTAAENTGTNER


How the values were obtained:
[1] = molecular target: T2, SIRPα V2-his (made by transient transfection of HEK293F cells according to SEQ ID NO:38) (Homo sapiens (Human), UniProt P78324 31-373); assay: BLI (Octet RED 96), His-tagged antigen on Ni-NTA sensor, antibody in solution
T2 construct: it is the full-length precursor, starting with MEPAG... and including the transmembrane and cytoplasmic parts; not shown: His tag
Experimental: (§1) SIRPα V1-his (ACRO, Cat #SIA-H5225), SIRPα V2-his (made by transient transfection of HEK293F cells according to SEQ ID NO:38 sequence), SIRPβ-his (Novoprotein, Cat #CS93), SIRPγ-his (Sino Biological, Cat #11828-H08H) or cynomolgus macaques SIRPα-his (ACRO, Cat #SIA-C52H7) at 5 μg/mL was loaded to a Ni-NTA biosensor for 600 s. […] The data were fitted to calculate the affinity.

[2] = molecular target: SIRPγ-his (Sino Biological, Cat #11828-H08H) (UniProt Q9P1W8 29-360); assay: as above
Experimental: as §1

[3] = molecular target: T3, SIRPβ-his (Novoprotein, Cat #CS93) (UniProt O00241 30-371, limits assumed); assay: as above
Experimental: as §1

[4] = molecular target: T4, SIRPα V1-his (ACRO, Cat #SIA-H5225) (human, UniProt P78324 31-370); assay: as above
T4 construct: not shown: His tag
Experimental: as §1

[5] = molecular target: T4, SIRPα V1-his (ACRO, Cat #SIA-H5225); assay: competition ELISA: coated SIRPα-V1-his, antibody titrated against biotin-CD47, streptavidin-HRP (panel SIRPα-V1-CD47)
[6] = molecular target: T2, SIRPα V2-his (made by transient …); assay: competition ELISA: coated SIRPα-V2-his, antibody titrated against biotin-CD47, streptavidin-HRP (panel SIRPα-V2-CD47)
[7] = molecular target: T3, SIRPβ-his (Novoprotein, Cat #CS93); assay: ELISA
[8] = molecular target: T4, SIRPα V1-his (ACRO, Cat #SIA-H5225); assay: ELISA
[9] = molecular target: T5, SIRPα-V1 on 293T-SIRPα-V1 cells (human, UniProt P78324 31-504); assay: FACS on cells carrying the target
T5 construct: Stably transfected cell line
Experimental: (§2) After washing, cells were stained with 0.2 μg goat anti-hIgG Fc-AF488 (Jackson ImmunoResearch, Cat #109-546-170) at 4° C. for 30 min. After washing again, cells were resuspended in 50 μL of DPBS/1% FBS and analyzed by FlowJo V10 and GraphPad Prism6 software.

[10] = molecular target: T6, SIRPα-V2 on CHOZN-SIRPα-V2 cells (Homo sapiens (Human), UniProt P78324 31-504); assay: FACS on cells carrying the target
Experimental: as §2

[11] = molecular target: T7, SIRPα-V8 on stably transfected cells (Homo sapiens (Human), UniProt P78324 31-504); assay: FACS on cells carrying the target
T7 construct: also called CHOZN-SIRPα-V8; 293T-SIRPα-V8
Experimental: as §2

[12] = molecular target: T1, cynomolgus macaques SIRPα-his (ACRO, …); assay: BLI (Octet RED 96), His-tagged antigen on Ni-NTA sensor, antibody in solution
Experimental: as §1

[13] = molecular target: T6, SIRPα-V2 on CHOZN-SIRPα-V2 cells; assay: FACS titration on CHOZN-SIRPα-V2 cells, goat anti-hIgG Fc-AF488 (panel SIRPα-V2)
Experimental: as §2

[14] = molecular target: T4, SIRPα V1-his (ACRO, Cat #SIA-H5225); assay: competition ELISA; coated SIRPα-V1-his, biotin-CD47 as competitor
Experimental: 100 μL of 2.5 μg/mL of recombinant SIRPα-V1-his and SIRPα-V2-his were coated overnight at 4° C. in Maxisorp ELISA 96-well plates. […] […] VSWFSP (SEQ ID NO: 40)] and incubated in the microtiter plate for 1 h at 37° C. After washing, each well was added with Streptavdin-HRP (Thermo, Cat #434323), substrate TMB (Beyotime, Cat #P0209-100 mL), and read by an enzyme marker.

[15] = molecular target: T6, SIRPα-V2 on CHOZN-SIRPα-V2 cells; assay: competition FACS; CHOZN-SIRPα-V2 cells, FITC-labelled CD47 as competitor
Experimental: (§3) After washing, cells were analyzed by FlowJo V10 and GraphPad Prism6 software.

[16] = molecular target: T5, SIRPα-V1 on 293T-SIRPα-V1 cells; assay: FACS titration on 293T-SIRPα-V1 cells, goat anti-hIgG-AF488 (panel SIRPα-V1)
Experimental: (§4) 2×10⁵ per well of stable transfer construct cell lines 293T-SIRPα-V1 (SEQ ID NO: 2), CHOZN-SIRPα-V2 (SEQ ID NO: 38), and CHOZN-SIRPα-V8 (SEQ ID NO: 39) in logarithmic phase were dispended in 96-well U-shaped culture plates, […] After washing, the cells were incubated with 0.2 μg of goat anti-hIgG-AF488 for 30 min at 4° C., then resuspended in 50 μL of DPBS/1% FBS and analyzed by flow cytometry with FlowJo V10 and GraphPad Prism6 software.

[17] = molecular target: T5, SIRPα-V1 on 293T-SIRPα-V1 cells; assay: competition FACS; 293T-SIRPα-V1 cells, FITC-labelled CD47 as competitor
Experimental: as §3

[18] = molecular target: T7, SIRPα-V8 on stably transfected cells; assay: FACS titration on CHOZN-SIRPα-V8 cells, goat anti-hIgG-AF488 (panel SIRPα-V8)
Experimental: as §4

[19] = molecular target: T4, SIRPα V1-his (ACRO, Cat #SIA-H5225); assay: SPR (Biacore), antibody captured by anti-Fc on CM5, 50 nM SIRPα V1-his injected, 1:1 model
Experimental: (§5) Using the Biacore analysis system, activators were prepared by mixing 400 mM EDC and 100 mM NHS and activated with a CM5 sensor chip at a flow rate of 10 μL/min for 420 s. Anti-Fc antibody at 30 μg/mL dissolved in 10 mM NaAc (pH 4.5) was injected into the channel at a flow rate of 10 μL/min and then closed with 1 M ethanolamine-HCl at a flow rate of 10 μL/min for 420 s. […] All experimental data were fitted using a 1:1 binding model.

[20] = molecular target: T4, SIRPα V1-his (ACRO, Cat #SIA-H5225); assay: SPR (Biacore), antibody captured by anti-Fc on CM5, 50 nM SIRPα V1-his injected
Experimental: as §5

T7 sequence (P78324 other isoform, or with tags, fused parts or gaps limits assumed): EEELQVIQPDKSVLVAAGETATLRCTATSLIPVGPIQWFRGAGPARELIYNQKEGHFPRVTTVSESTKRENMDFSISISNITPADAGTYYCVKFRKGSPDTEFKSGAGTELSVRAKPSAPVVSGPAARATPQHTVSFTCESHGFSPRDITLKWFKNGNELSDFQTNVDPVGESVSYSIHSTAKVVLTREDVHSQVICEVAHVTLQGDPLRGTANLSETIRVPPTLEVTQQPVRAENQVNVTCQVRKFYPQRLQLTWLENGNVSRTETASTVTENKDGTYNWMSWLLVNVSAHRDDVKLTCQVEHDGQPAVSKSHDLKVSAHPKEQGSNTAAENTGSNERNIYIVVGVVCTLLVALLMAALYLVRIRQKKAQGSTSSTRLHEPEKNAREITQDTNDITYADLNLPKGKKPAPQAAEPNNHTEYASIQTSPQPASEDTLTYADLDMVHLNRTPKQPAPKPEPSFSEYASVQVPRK
T2 sequence (P78324 other isoform, or with tags, fused parts or gaps limits assumed): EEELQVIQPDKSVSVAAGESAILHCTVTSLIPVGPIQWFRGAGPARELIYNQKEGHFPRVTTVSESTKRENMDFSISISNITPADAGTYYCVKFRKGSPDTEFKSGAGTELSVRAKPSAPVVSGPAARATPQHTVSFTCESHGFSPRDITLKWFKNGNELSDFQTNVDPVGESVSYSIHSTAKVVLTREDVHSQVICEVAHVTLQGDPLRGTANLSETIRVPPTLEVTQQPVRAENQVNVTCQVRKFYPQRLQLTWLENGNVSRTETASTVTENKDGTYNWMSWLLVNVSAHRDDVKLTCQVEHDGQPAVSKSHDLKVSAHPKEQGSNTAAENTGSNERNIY
T4 sequence (P78324 31-370 limits assumed): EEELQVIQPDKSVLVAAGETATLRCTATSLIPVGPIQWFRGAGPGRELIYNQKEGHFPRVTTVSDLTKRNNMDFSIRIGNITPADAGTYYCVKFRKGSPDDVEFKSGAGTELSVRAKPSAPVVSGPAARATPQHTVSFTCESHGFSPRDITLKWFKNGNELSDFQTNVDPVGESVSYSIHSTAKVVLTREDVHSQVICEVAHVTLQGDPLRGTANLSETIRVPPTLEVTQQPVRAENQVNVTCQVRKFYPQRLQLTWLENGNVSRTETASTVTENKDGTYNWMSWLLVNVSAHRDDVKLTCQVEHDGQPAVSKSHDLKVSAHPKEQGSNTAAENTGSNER
T5 sequence (P78324 31-504): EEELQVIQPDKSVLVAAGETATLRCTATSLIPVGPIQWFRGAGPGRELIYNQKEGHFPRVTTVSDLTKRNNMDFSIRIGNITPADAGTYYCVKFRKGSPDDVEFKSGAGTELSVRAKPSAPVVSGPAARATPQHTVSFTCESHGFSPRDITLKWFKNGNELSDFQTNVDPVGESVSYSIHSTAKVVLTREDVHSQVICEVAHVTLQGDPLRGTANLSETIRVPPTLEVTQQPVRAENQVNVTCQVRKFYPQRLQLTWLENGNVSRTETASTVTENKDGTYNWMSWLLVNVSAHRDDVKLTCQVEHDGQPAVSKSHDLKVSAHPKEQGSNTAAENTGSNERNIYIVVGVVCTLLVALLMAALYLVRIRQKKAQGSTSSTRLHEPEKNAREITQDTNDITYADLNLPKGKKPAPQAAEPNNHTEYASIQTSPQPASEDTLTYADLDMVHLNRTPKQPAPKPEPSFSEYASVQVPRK
SIRPγ-his (Sino Biological, Cat #11828-H08H), sequence (Q9P1W8 29-360 limits assumed): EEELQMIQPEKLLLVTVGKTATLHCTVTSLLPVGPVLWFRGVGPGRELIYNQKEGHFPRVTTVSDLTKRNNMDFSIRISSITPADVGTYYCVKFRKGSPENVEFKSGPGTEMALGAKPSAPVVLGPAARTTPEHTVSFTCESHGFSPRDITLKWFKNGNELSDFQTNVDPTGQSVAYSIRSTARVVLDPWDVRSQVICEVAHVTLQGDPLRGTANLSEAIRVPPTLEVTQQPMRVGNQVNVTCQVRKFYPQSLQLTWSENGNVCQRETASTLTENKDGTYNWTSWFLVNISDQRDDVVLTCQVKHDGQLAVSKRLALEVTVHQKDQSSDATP
T6 sequence (P78324 other isoform, or with tags, fused parts or gaps limits assumed): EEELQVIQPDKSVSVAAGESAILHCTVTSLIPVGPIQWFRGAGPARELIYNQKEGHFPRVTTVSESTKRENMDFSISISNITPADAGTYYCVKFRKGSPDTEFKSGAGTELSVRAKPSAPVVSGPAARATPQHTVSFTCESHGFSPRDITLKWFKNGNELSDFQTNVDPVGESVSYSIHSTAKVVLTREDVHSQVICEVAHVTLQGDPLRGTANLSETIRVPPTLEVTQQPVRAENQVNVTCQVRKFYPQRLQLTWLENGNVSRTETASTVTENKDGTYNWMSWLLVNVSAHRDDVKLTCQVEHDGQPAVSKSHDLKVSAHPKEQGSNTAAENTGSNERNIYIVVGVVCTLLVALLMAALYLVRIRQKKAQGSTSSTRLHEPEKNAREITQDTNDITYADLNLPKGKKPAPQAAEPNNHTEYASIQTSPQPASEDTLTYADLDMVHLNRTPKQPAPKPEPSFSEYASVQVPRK
T3 sequence (O00241 30-371 limits assumed): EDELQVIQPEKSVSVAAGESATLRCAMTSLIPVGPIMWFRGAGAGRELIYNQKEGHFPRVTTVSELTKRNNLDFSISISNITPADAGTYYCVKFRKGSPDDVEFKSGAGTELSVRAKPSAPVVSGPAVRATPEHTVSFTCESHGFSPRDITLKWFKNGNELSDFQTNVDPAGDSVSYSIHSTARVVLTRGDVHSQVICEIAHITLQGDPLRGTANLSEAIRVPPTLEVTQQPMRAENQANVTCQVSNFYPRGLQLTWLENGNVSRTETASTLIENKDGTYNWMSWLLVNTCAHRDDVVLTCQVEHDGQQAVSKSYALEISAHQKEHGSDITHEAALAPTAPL

| Kd [2] [nM] | koff [2] [s⁻¹] | kon [2] [M⁻¹ s⁻¹] | Kd [3] [nM] | koff [3] [s⁻¹] | kon [3] [M⁻¹ s⁻¹] | Kd [4] [nM] | koff [4] [s⁻¹] | kon [4] [M⁻¹ s⁻¹] | EC50 [7] [nM] | EC50 [8] [nM] | EC50 [9] [nM] | EC50 [10] [nM] | EC50 [11] [nM] | further results | Binder |
| --- | --- | --- | --- | --- | --- | --- | --- | --- | --- | --- | --- | --- | --- | --- | --- |
| 1.23 | 0.000896 | 728000 | 0.0137 | 2.36e-05 | 1.72e+06 | 0.115 | 7.76e-05 | 674000 | 0.196 | 0.13 | 1.08 | 3.65 | 8.76 | Kd [1]: 1.07 nM; koff [1]: 0.000601 s⁻¹; kon [1]: 561000 M⁻¹ s⁻¹; IC50 (read off the curve) [5]: ~20 nM; IC50 (read off the curve) [6]: ~30 nM | 18D5 (antibody, V domains shown) VH: QVQLQQPGAELVRPGSSVKLSCKASGYTFTSYWVHWVKQRPIQGLEWIGNIDPSDSDTHYNQKFKDKASLTVDKSSSTAYMQLSSLTFEDSAVYYCVRGGTGTMAWFAYWGQGTLVTVSA VL: DVVMTQTPLSLPVSLGDQASISCRSSQSLVHSYGNTYLYWYLQKPGQSPKLLIYRVSNRFSGVPDRFSGSGSGTDFTLKISRVEAEDLGVYFCFQGTHVPYTFGSGTKLEIK |
| 1.03 | 0.000731 | 709000 | 0.0353 | 3.21e-05 | 909000 | 0.0111 | 1.16e-05 | 1.05e+06 | 0.271 | 0.0488 | 0.615 | 0.245 | 0.407 | Kd [12]: 0.43 nM; koff [12]: 0.000498 s⁻¹; kon [12]: 1.16e+06 M⁻¹ s⁻¹; EC50 (read off the curve) [13]: ~4 nM; IC50 [14]: 5.26 nM; IC50 [15]: 6.42 nM; EC50 (read off the curve) [16]: ~5 nM; IC50 [17]: 1.74 nM; EC50 (read off the curve) [18]: ~2 nM; Kd [19]: 1.47 nM; koff [19]: 0.00113 s⁻¹; kon [19]: 770000 M⁻¹ s⁻¹ | AD4-12 (antibody, V domains shown, Mouse variable domains joined to human kappa and human IgG1 constant regions (wild type = AD4-12-G1, L234A/L235A = AD4-12-G1lala); also called AD4-12-G1; AD4-12-G1lala) VH: EVQLEESGPGLVAPSQSLSITCTVSGFSLTGYGVNWVRQPPGKGLEWLGIIWGDGSTDYNSALKSRLSISKDNSKSQVFLKMNSLQSDDTARYYCARAGKMDYWGQGTSVTVSS VL: DIVLTQSPASLAVSLGQGATISCRASESVDSYGNSFMHWYQQKPGQPPKPLIYLASNLESGVPARFSGSGSRTDFTLTIDPVEADDAATYYCQQNNEYPWTFGGGTKLEIK |
|  |  |  |  |  |  |  |  |  |  |  |  |  |  | binding result [20]: binds | Z2 (antibody, IgG1, V domains shown, also called humanized variant Z2) VH: QVQLQESGPGLVKPSQTLSLTCTVSGFSLTGYGVNWIRQPPGKGLEWIGIIWGDGSTDYNSALKSRVTISVDTSKNQVFLKLSSVTAADTAVYYCARAGKMDYWGQGTTVTVSS VL: DIVLTQSPASLAVSPGQRATITCRASESVDSYGNSFMHWYQQKPGQPPKLLIYLASNLESGVPARFSGSGSRTDFTLTINPVEANDAANYYCQQNNEYPWTFGGGTKVEIK |
